In patent publication US20260250363A1 one finds EC50, Kd and IC50 data, which are given here for three substances.

What is called EC50 is the concentration giving half of the maximal effect. Read a high EC50 as a less potent agent. The term Kd denotes the equilibrium constant for the complex coming apart. Low values mean a tighter complex, high ones a looser complex. Usually IC50 stands for the point on the concentration scale where inhibition reaches its midpoint.

In test [1] the target is SARS-CoV-2 B.1.617.2 Spike Protein (R&D, Cat. #10878-CV) (SARS-CoV-2) (UniProt P0DTC2). The test is described as follows: direct ELISA on coated spike. Background: ELISA stands for enzyme-linked immunosorbent assay.
Test [2] has as its target SARS-CoV-2 B.1.1.529 Spike Protein (Omicron) (SARS-CoV-2) (UniProt P0DTC2). Put plainly: BLI (ForteBio), mAb on AHC sensor, spike in solution. (In general: Biolayer interferometry detects binding as a change in optical thickness at a sensor tip.)
The target of test [3] is SARS-CoV-2 B.1.617.2 Spike Protein (R&D, Cat. #10878-CV) (SARS-CoV-2) (UniProt P0DTC2). Described as above.
Test [4] shares this target. The test is described as follows: competition ELISA: blocks biotin-ACE2 binding to coated spike.
Test [5] has the same target. Described as above. The source holds these as a separate data set.
For test [6], the target named is SARS-CoV-2 Spike Trimer, His Tag (BA.4/Omicron) (MALS verified) (AcroBiosystems, SPN-C5229) (SARS-CoV-2) (UniProt P0DTC2). Described as above.
The target in test [7] is SARS-CoV-2 B.1.1.529 Spike Protein (Omicron) (SARS-CoV-2) (UniProt P0DTC2). Described as above.
The target in test [8] is SARS-CoV-2 Spike Trimer, His Tag (BA.5/Omicron) (MALS verified) (AcroBiosystems, SPN-C522e) (SARS-CoV-2) (UniProt P0DTC2). The test is described as above.
The target in test [9] is Recombinant SARS-CoV-2 BA.2 Spike (GCN4-IZ) His Protein, CF (R&D, 11109-CV) (SARS-CoV-2) (UniProt P0DTC2). Described as above.

Read-outs that look alike come from different tables or passages of the source.

As for Casirivimab (antibody), the EC50 in [1] stood at 0.0399 nM. Further, the figures for the Kd in [2] and in test [3] were 7.82 nM and 0.484 nM, respectively. The IC50 in [4] came to 0.956 nM; in [5], 1.1 nM.

For the substance Imdevimab (antibody), in test [1], the concentration giving a half-maximal response (EC50) stood at 0.0671 nM. In addition, the values for the Kd in test [2] and in test [3] were 456 nM and 1.53 nM, respectively.

Turning to Bebtelovimab (antibody), the half-maximal inhibitory concentration (IC50) in test [6] was 4.07 nM; in test [7] it was 6.73 nM; in test [8], 3.46 nM; in test [9], 3.08 nM.
